For assay [1], the target named is CD38 antigen on the cell surface (Daudi cells; NCI-H929 cells) (human, UniProt P28907 1-300). Nature of the assay: cell-based or functional assay.
Assay [2] deals with T1, CD38 (human), analyte in Biacore (human, UniProt P28907 43-300, limits assumed).
T1 construct: also called 分析物CD38; 人的CD38蛋白
Nature of the assay: SPR (Biacore 8K), antibody captured on Protein A chip, CD38 as analyte, 25℃.

B1: RB0021-S3 (antibody)
chain 1: not shown
chain 2: DVQMTQSPSSVSASVGDRVTITCRSSQSPEHSNGNTYLHWYQQKPGKAPKLLIYKVSNRFSGVPSRFSGSGSGTDFTLTISSLQPEDFATYFCSQGTHFPFTFGQGTKVEIKRTVAAPSVFIFPPSDEQLKSGTASVVCLLNNFYPREAKVQWKVDNALQSGNSQESVTEQDSKDSTYSLSSTLTLSKADYEKHKVYACEVTHQGLSSPVTKSFNRGEC
Turning to B1, the “ADCC reporter (Jurkat-Lucia-NFAT-CD16 + NCI-H929), EC50(μg/mL)” value in assay [1] was found to be 0.011 µg/mL. For the same molecule, in assay [2], the Kd is 1.04 nM.

B2: RB0021-S4 (antibody)
chain 1: not shown
chain 2: B1 chain 2
Regarding B2, the “ADCC reporter (Jurkat-Lucia-NFAT-CD16 + NCI-H929), EC50(μg/mL)” value in assay [1] came to 0.014 µg/mL. The same molecule came in with a dissociation constant Kd in assay [2] of 1.04 nM.

For the origin of these results see patent CN114075285A (REYOUNG SUZHOU BIOPHARMACEUTICAL CO LTD, dated 2022).
